According to US20240084003A1 (SIMCERE ZAIMING PHARMACEUTICAL, published 2024):

How the values were obtained:
human CD22 domain5-7-His = biological target: T1, human CD22 domain5-7-His (human, UniProt P20273 414-687); experiment: ELISA, plate coated with human CD22 domain5-7-His
T1 construct: also called hCD22 domain5-7-His; not shown: His tag
T1 sequence: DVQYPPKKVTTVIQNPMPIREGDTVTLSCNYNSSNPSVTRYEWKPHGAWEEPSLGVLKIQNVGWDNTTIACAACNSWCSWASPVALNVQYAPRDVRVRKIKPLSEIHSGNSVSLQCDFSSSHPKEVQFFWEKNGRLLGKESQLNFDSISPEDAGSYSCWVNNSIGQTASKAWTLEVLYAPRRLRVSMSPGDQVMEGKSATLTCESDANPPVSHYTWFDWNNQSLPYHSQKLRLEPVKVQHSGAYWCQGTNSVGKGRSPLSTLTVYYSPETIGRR

[1] = biological target: T2, human CD22-ECD-His protein (human, UniProt P20273 20-687); experiment: SPR (Biacore), antibody captured on Protein A chip, CD22-ECD-His in solution
T2 construct: Recombinant, from HEK293E cells; also called hCD22-ECD-His; human CD22-His protein; not shown: His tag
T2 sequence: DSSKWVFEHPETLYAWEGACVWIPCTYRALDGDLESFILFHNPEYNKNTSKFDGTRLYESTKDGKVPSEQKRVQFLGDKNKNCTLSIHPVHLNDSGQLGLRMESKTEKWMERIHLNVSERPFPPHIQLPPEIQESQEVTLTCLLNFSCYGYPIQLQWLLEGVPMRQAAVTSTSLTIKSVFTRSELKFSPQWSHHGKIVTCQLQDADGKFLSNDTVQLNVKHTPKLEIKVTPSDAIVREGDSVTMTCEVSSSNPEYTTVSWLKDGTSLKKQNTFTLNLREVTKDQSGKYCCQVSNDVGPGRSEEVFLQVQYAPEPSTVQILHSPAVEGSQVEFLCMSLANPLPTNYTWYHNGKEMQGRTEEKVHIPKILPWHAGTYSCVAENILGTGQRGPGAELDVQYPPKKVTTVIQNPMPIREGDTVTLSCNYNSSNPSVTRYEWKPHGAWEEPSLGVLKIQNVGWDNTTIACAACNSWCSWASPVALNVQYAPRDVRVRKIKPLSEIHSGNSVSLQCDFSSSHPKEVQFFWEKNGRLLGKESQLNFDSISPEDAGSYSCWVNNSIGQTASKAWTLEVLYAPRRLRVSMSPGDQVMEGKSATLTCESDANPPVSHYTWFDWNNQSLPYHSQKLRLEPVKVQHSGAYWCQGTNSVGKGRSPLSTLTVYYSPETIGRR
Experimental: Sample buffer and running buffer were HBS-EP+(10 mM HEPES, 150 mM NaCl, 3 mM EDTA, 0.05% surfactant P20) (GE Healthcare; BR-1006-69). The flow-through cell was set to 25° C. The sample block was set to 16° C. Both were pretreated with the running buffer. In each cycle, the antibody to be tested was first captured with a Protein A chip, then a single concentration of CD22 antigen protein was injected. The binding and dissociation process of the antibody and the antigen protein was recorded, and finally Glycine pH 1.5 (GE Healthcare; BR-1003-54) was used to complete chip regeneration. Binding was measured by injecting different concentrations of recombinant human CD22-ECD His protein in solution for 240 s with a flow rate of 30 μL/min. The concentration started from 200 nM (see the detailed results for the actual concentration in the test) and was diluted at 1:1, making a total of 5 concentrations. The dissociation phase was monitored for up to 600 s and was triggered by switching from sample solution to running buffer. The surface was regenerated by washing with a 10 mM of glycine solution (pH 1.5) for 30 s at a flow rate of 30 μL/min. Bulk refractive index difference was corrected by subtracting the response obtained from the goat anti-human Fc surface. Blank injection was also subtracted (=double reference). For calculation of apparent KD and other kinetic parameters, Langmuir 1:1 model was used.

[2] = biological target: T3, rhesus monkey CD22-ECD-His protein (rhesus monkey, UniProt H9G1X2 18-686); experiment: SPR (Biacore), antibody captured on Protein A chip, rhesus CD22 in solution
T3 construct: extracellular domain; also called monkey CD22 protein
T3 sequence: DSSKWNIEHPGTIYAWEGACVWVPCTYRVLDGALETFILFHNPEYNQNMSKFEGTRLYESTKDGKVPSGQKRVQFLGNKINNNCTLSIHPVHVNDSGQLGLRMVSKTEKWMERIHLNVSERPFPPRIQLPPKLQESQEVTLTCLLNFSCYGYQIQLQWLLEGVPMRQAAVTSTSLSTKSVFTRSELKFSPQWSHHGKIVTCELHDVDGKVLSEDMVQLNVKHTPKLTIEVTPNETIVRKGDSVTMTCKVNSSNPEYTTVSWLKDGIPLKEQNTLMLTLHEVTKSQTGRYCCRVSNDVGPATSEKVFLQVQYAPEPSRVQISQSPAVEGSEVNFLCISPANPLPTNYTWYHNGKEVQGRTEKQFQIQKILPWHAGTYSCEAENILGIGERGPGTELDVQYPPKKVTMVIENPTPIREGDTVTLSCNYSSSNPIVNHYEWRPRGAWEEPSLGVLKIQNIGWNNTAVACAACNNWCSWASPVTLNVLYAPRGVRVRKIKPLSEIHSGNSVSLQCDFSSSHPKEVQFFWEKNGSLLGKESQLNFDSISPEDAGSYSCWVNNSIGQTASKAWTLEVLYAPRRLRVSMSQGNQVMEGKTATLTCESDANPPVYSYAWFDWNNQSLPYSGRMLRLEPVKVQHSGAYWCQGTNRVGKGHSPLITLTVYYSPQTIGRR

B1: HA22-hIgG1 (antibody, V domains shown)
VH: EVQLVESGGGLVKPGGSLKLSCAASGFAFSIYDMSWVRQTPEKCLEWVAYISSGGGTTYYPDTVKGRFTISRDNAKNTLYLQMSSLKSEDTAMYYCARHSGYGTHWGVLFAYWGQGTLVTVSA
VL: DIQMTQTTSSLSASLGDRVTISCRASQDISNYLNWYQQKPDGTVKLLIYYTSILHSGVPSRFSGSGSGTDYSLTISNLEQEDFATYFCQQGNTLPWTFGCGTKLEIKR
**Q.** Which results are given for B1?
**A.** binding result (human CD22 domain5-7-His): no binding; Kd [1]: 1.33 nM; koff [1]: 8.96e-05 s⁻¹; kon [1]: 67400 M⁻¹ s⁻¹; Kd [2]: 3.41 nM; koff [2]: 0.000234 s⁻¹; kon [2]: 68600 M⁻¹ s⁻¹
